# B1: crRNA + 58 bp target DNA MM 0 (labeled) (mixed)
# RNA: AAUUUCUACUGUUGUAGAUGUGAUAAGUGGAAUGCCAUGUGGG
# DNA 1: ACTCAATTTTGACAGCCCACATGGCATTCCACTTATCACTAAAGGCATCCTTCCACGT
# DNA 2: ACGTGGAAGGATGCCTTTAGTGATAAGTGGAATGCCATGTGGGCTGTCAAAATTGAGT
# Key:
# FnCas12a ΔBH [1] = target: T1, FnCas12a ΔBH (Francisella novicida, UniProt A0Q7Q2 1-1300, del953-969); experiment: EMSA
# FnCas12a Δh1 [2] = target: T2, FnCas12a Δh1 (Francisella novicida, UniProt A0Q7Q2 1-1300, del972-1000); experiment: EMSA
# FnCas12a ΔBH/Δh1 [3] = target: T3, FnCas12a ΔBH/Δh1 (Francisella novicida, UniProt A0Q7Q2 1-1300, del953-1000); experiment: EMSA
# FnCas12a WT = FnCas12a WT (Francisella novicida, UniProt A0Q7Q2 1-1300); experiment: mass photometry
# FnCas12a ΔBH [4] = target: T1, FnCas12a ΔBH; experiment: EMSA; remark: listed apart in the source
# FnCas12a Δh1 [5] = target: T2, FnCas12a Δh1; experiment: EMSA; remark: listed apart in the source
# FnCas12a ΔBH/Δh1 [6] = target: T3, FnCas12a ΔBH/Δh1; experiment: EMSA; remark: listed apart in the source
# FnCas12a ΔΔBH = FnCas12a ΔΔBH (Francisella novicida, UniProt A0Q7Q2 1-1300, del953-971); experiment: EMSA
binder,measurement,setting,value
AAUUUCUACUGUUGUAGAUGUGAUAAGUGGAAUGCCAUGUGGG (structured_RNA) [crRNA-Cy5 (43 nt)],binding signal,FnCas12a ΔBH [1],~50 % of WT
same,binding signal,FnCas12a Δh1 [2],10.7 % of WT
same,binding signal,FnCas12a ΔBH/Δh1 [3],22.9 % of WT
AAUUUCUACUGUUGUAGAUGUGAUAAGUGGAAUGCCAUGUGGG (structured_RNA) [crRNA (43 nt)],binding result,FnCas12a WT,binds
B1,binding result,FnCas12a ΔBH [4],binds
same,binding result,FnCas12a Δh1 [5],no binding
same,binding result,FnCas12a ΔBH/Δh1 [6],no binding
same,binding result,FnCas12a ΔΔBH,no binding

# Reference: PMC9508855
